# Measured values reported in patent US20210198368A1 (Novartis, published 2021).
# B1: CD3 × CLL1_11 (bispecific antibody)
# chain 1: QVQLVQSGGGVVQPGRSLRLSCKASGYTFTRYTMHWVRQAPGKGLEWIGYINPSRGYTNYNQKVKDRFTISRDNSKNTAFLQMDSLRPEDTGVYFCARYYDDHYSLDYWGQGTPVTVSSGGGGSGGGKSKKGGSGGGGSDIQMTQSPSSLSASVGDRVTITCSASSSVSYMNWYQQTPGKAPKRWIYDTSKLASGVPSRFSGSGSGTDYTFTISSLQPEDIATYYCQQWSSNPFTFGQGTKLQITGGGGSDKTHTCPPCPAPELLGGPSVFLFPPKPKDTLMISRTPEVTCVVVAVSHEDPEVKFNWYVDGVEVHNAKTKPREEQYNSTYRVVSVLTVLHQDWLNGKEYKCKVSNKALAAPIEKTISKAKGQPREPQVCTLPPSRDELTKNQVSLSCAVKGFYPSDIAVEWESNGQPENNYKTTPPVLDSDGSFFLVSKLTVDKSRWQQGNVFSCSVMHEALHNHYTQKSLSLSPGK
# chain 2: EVQLVQSGGGVVRSGRSLRLSCAASGFTFNSYGLHWVRQAPGKGLEWVALIEYDGSNKYYGDSVKGRFTISRDKSKSTLYLQMDNLRAEDTAVYYCAREGNEDLAFDIWGQGTLVTVSSGGGGSGGGGSGGGGSGGGGSEIVLTQSPSSLSASVGDRVTITCQASQFIKKNLNWYQHKPGKAPKLLIYDASSLQTGVPSRFSGNRSGTTFSFTISSLQPEDVATYYCQQHDNLPLTFGGGTKVEIKGGGGSGSDKTHTCPPCPAPELLGGPSVFLFPPKPKDTLMISRTPEVTCVVVAVSHEDPEVKFNWYVDGVEVHNAKTKPREEQYNSTYRVVSVLTVLHQDWLNGKEYKCKVSNKALAAPIEKTISKAKGQPREPQVYTLPPCRDELTKNQVSLWCLVKGFYPSDIAVEWESNGQPENNYKTTPPVLDSDGSFFLYSKLTVDKSRWQQGNVFSCSVMHEALHNHYTQKSLSLSPGK
# B2: CD3 × CLL1_07 (bispecific antibody)
# chain 1: B1 chain 1
# chain 2: QVQLVESGGGLVQPGGSLRLSCAASGFTFSSYWMSWVRQAPGKGLEWVANINEDGSAKFYVDSVKGRFTISRDNAKNSLYLQMNSLRAEDTAVYFCARDLRSGRYWGQGTLVTVSSGGGGSGGGGSGGGGSEIVLTQSPGTLSLSPGGRATLSCRASQSISGSFLAWYQQKPGQAPRLLIYGASSRATGIPDRFSGSGSGTDFTLTISRLEPEDFAVYYCQQYGSSPPTFGLGTKLEIKGGGGSDKTHTCPPCPAPELLGGPSVFLFPPKPKDTLMISRTPEVTCVVVAVSHEDPEVKFNWYVDGVEVHNAKTKPREEQYNSTYRVVSVLTVLHQDWLNGKEYKCKVSNKALAAPIEKTISKAKGQPREPQVYTLPPCRDELTKNQVSLWCLVKGFYPSDIAVEWESNGQPENNYKTTPPVLDSDGSFFLYSKLTVDKSRWQQGNVFSCSVMHEALHNHYTQKSLSLSPGK
# B3: CD3 × CLL1_12 (bispecific antibody)
# chain 1: B1 chain 1
# chain 2: not shown
# B4: CD3 × CLL1_10 (bispecific antibody)
# chain 1: B1 chain 1
# chain 2: QVQLVQSGGGLVQPGGSLRLSCAASGFTFSSYSMNWVRQAPGKGLEWVSYISSSSSTIYYADSVKGRFTISRDNAKNSLYLQMNSLRAEDTAVYYCARDLSVRAIDAFDIWGQGTMVTVSSGGGGSGGGGSGGGGSGGGGSDIVLTQSPSSLSASVGDRVTITCQASQDISNYLNWYQQKPGKAPKLLIYDASNLETGVPSRFSGSGSGTDFTFTISSLQPEDFATYYCQQAYSTPFTFGPGTKVEIKGGGGSGSDKTHTCPPCPAPELLGGPSVFLFPPKPKDTLMISRTPEVTCVVVAVSHEDPEVKFNWYVDGVEVHNAKTKPREEQYNSTYRVVSVLTVLHQDWLNGKEYKCKVSNKALAAPIEKTISKAKGQPREPQVYTLPPCRDELTKNQVSLWCLVKGFYPSDIAVEWESNGQPENNYKTTPPVLDSDGSFFLYSKLTVDKSRWQQGNVFSCSVMHEALHNHYTQKSLSLSPGK
# B5: CD3 × CLL1_02 (bispecific antibody)
# chain 1: B1 chain 1
# chain 2: EVQLVESGGGVVQPGGSLRLSCAASGFTFDDYAMHWVRQAPGKGLEWVSLISGDGGSTYYADSVKGRFTISRDNSKNTLYLQMNSLRVEDTAVYYCARVFDSYYMDVWGKGTTVTVSSGGGGSGGGGSGSGGSEIVLTQSPLSLPVTPGQPASISCRSSQSLVYTDGNTYLNWFQQRPGQSPRRLIYKVSNRDSGVPDRFSGSGSDTDFTLKISRVEAEDVGIYYCMQGTHWSFTFGQGTRLEIKGGGGSDKTHTCPPCPAPELLGGPSVFLFPPKPKDTLMISRTPEVTCVVVAVSHEDPEVKFNWYVDGVEVHNAKTKPREEQYNSTYRVVSVLTVLHQDWLNGKEYKCKVSNKALAAPIEKTISKAKGQPREPQVYTLPPCRDELTKNQVSLWCLVKGFYPSDIAVEWESNGQPENNYKTTPPVLDSDGSFFLYSKLTVDKSRWQQGNVFSCSVMHEALHNHYTQKSLSLSPGK
# B6: CD3 × CLL1_06 (bispecific antibody)
# chain 1: B1 chain 1
# chain 2: EVQLVESGGGLVKPGGSLRLSCAASGFTFSSYSMNWVRQAPGKGLEWVSSISSSSSYIYYADSVKGRFTISRDNAKNSLYLQMNSLRAEDTAVYYCARDPSSSGSYYMEDSYYYGMDVWGQGTTVTVSSGGGGSGGGGSGGGGSNFMLTQPHSVSESPGKTVTISCTGSSGSIASNYVQWYQQRPGSAPTTVIYEDNQRPSGVPDRFSGSIDSSSNSASLTISGLKTEDEADYYCQSYDSSNQVVFGGGTKLTVLGGGGSGSDKTHTCPPCPAPELLGGPSVFLFPPKPKDTLMISRTPEVTCVVVAVSHEDPEVKFNWYVDGVEVHNAKTKPREEQYNSTYRVVSVLTVLHQDWLNGKEYKCKVSNKALAAPIEKTISKAKGQPREPQVYTLPPCRDELTKNQVSLWCLVKGFYPSDIAVEWESNGQPENNYKTTPPVLDSDGSFFLYSKLTVDKSRWQQGNVFSCSVMHEALHNHYTQKSLSLSPGK
# B7: CD3 × CLL1_08 (bispecific antibody)
# chain 1: B1 chain 1
# chain 2: QVQLVESGGGLVQPGGSLRLSCAASGFTFSSYWMSWVRQAPGKGLEWVANINEDGSAKFYVDSVKGRFTISRDNAKNSLYLQMNSLRAEDTAVYFCARDLRSGRYWGQGTLVTVSSGGGGSGGGGSGGGGSEIVLTQSPGTLSLSPGGRATLSCRASQSISGSFLAWYQQKPGQAPRLLIYGASSRATGIPDRFSGSGSGTDFTLTISRLEPEDFAVYYCQQYGSSPPTFGLGTKLEIKGGGGSGSDKTHTCPPCPAPELLGGPSVFLFPPKPKDTLMISRTPEVTCVVVAVSHEDPEVKFNWYVDGVEVHNAKTKPREEQYNSTYRVVSVLTVLHQDWLNGKEYKCKVSNKALAAPIEKTISKAKGQPREPQVYTLPPCRDELTKNQVSLWCLVKGFYPSDIAVEWESNGQPENNYKTTPPVLDSDGSFFLYSKLTVDKSRWQQGNVFSCSVMHEALHNHYTQKSLSLSPGK
# B8: CD3 × CLL1_13 (bispecific antibody)
# chain 1: B1 chain 1
# chain 2: QVQLVQSGAEVKKSGASVKVSCKASGYPFTGYYIQWVRQAPGQGLEWMGWIDPNSGNTGYAQKFQGRVTMTRNTSISTAYMELSSLRSEDTAVYYCASDSYGYYYGMDVWGQGTLVTVSSGGGGSGGGGSGGGGSGGGGSDIQMTQSPSSLSASVGDRVTFTCRASQGISSALAWYQQKPGKPPKLLIYDASSLESGVPSRFSGSGSGTDFTLTISSLQPEDFATYYCQQFNNYPLTFGGGTKVEIKGGGGSGSDKTHTCPPCPAPELLGGPSVFLFPPKPKDTLMISRTPEVTCVVVAVSHEDPEVKFNWYVDGVEVHNAKTKPREEQYNSTYRVVSVLTVLHQDWLNGKEYKCKVSNKALAAPIEKTISKAKGQPREPQVYTLPPCRDELTKNQVSLWCLVKGFYPSDIAVEWESNGQPENNYKTTPPVLDSDGSFFLYSKLTVDKSRWQQGNVFSCSVMHEALHNHYTQKSLSLSPGK
# B9: CD3 × CLL1_09 (bispecific antibody)
# chain 1: B1 chain 1
# chain 2: QVQLVQSGAEVKEPGASVKVSCKAPANTFSDHVMHWVRQAPGQRFEWMGYIHAANGGTHYSQKFQDRVTITRDTSANTVYMDLSSLRSEDTAVYYCARGGYNSDAFDIWGQGTMVTVSSGGGGSGGGGSGGGGSGGGGSDIVMTQSPSSVSASVGDRVTITCRASQDISSWLAWYQQKPGKAPKLLIYAASSLQSGVPSRFNGSGSGTDFTLTISSLQPEDFATYYCQQSYSTPLTFGGGTKVEIKGGGGSGSDKTHTCPPCPAPELLGGPSVFLFPPKPKDTLMISRTPEVTCVVVAVSHEDPEVKFNWYVDGVEVHNAKTKPREEQYNSTYRVVSVLTVLHQDWLNGKEYKCKVSNKALAAPIEKTISKAKGQPREPQVYTLPPCRDELTKNQVSLWCLVKGFYPSDIAVEWESNGQPENNYKTTPPVLDSDGSFFLYSKLTVDKSRWQQGNVFSCSVMHEALHNHYTQKSLSLSPGK
# Molecular target: T1, human CLL1 expressed on cancer cell lines HL60 and U937 (human, UniProt Q5QGZ9 1-265)
# T1 sequence (looked up): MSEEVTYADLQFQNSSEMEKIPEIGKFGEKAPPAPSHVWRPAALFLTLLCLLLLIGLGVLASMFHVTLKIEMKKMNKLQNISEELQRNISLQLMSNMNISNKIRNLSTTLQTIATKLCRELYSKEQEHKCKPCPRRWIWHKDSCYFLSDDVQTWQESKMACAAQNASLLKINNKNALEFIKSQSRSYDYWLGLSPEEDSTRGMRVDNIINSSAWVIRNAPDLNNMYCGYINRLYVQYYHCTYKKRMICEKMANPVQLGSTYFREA
# Experiment: cell-based or functional assay
Binder,"EC50 (nM), Killing HL60 (T-cell mediated killing of the CLL1-positive cancer cell line)","EC50 (nM), NFAT U937 (T-cell activation, Jurkat NFAT luciferase reporter assay)"
B1,0.03 nM,0.08 nM
B2,44.3 nM,
B3,0.2 nM,0.63 nM
B4,0.27 nM,0.85 nM
B5,> 300 nM,
B6,1.27 nM,0.96 nM
B7,0.31 nM,1.26 nM
B8,4.24 nM,2.16 nM
B9,0.36 nM,1.74 nM
